Test results from PMC2749490.

Test system: CC(C)C[C@H](NC(=O)[C@H](CO)NC(=O)[C@H](C)NC(=O)[C@H](CCCNC(=N)N)NC(=O)[C@H](CCCNC(=N)N)NC(=O)[C@@H](N)CC(C)C)C(=O)NCC(=O)O
Type: biochemical
Conditions: other: from the noncompetitive inhibition model fit; pH 7.4

How did the Km turn out when PKA (Homo sapiens) was run?
Its Km is 12 µM.
